Test results: paper PMC10618690

Experiments:
[1] = target: histone H3 amino acids 16-35, H3K27me2 peptide (UniProt P68431); test: peptide or protein array
[2] = target: histone H3 amino acids 16-35, H3K27me3 peptide (UniProt P68431); test: peptide or protein array

Row | fold increase in binding over the corresponding unmodified peptide [1] [fold] | fold increase in binding over the corresponding unmodified peptide [2] [fold] | fold increase in binding over the unmodified peptide [1] [fold] | fold increase in binding over the unmodified peptide [2] [fold] | Substance
1 | 5 | 3 | – | – | GST-tagged PWWP1 domain of Apis mellifera DNMT3 (domain or fragment)
2 | – | – | 3 | 3 | GST-tagged PWWP2 domain of Apis mellifera DNMT3 (domain or fragment)
